We go through 116 sequences from the supplement of paper PMC10724198.

± gives the standard deviation of the averaged measurements.
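Further: PSI is a weighted mean of sequencing reads over stability bins, variants kept only with over 10 reads, mCherry proximal and sfGFP distal, peptide attached via GGGS linker.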

In the data set the test system is Saccharomyces cerevisiae. The data set can be described thus: protein stability index of tFT-peptide fusion (C-terminal peptide) (PSI (0-1 scale)); higher = more stable (slower turnover). The following applies: genetic background: wild type; temperature: 30 C.
Consider KPQQKQEKLTNP, for which the protein stability index came to 0.736 ± 0.043.
Sequence KPYKTYKIIKRE gave a protein stability index of 0.6578 ± 0.0028.
Then KQFKFPLRVIRA, with 0.519 ± 0.024; and KQKKAETQATQK, with 0.678 ± 0.038.
Then KQPGAGGGEVGG, with 0.6555 ± 0.002; and KQRGSKVIIKVD, with 0.663 ± 0.011.
For the sequence KQRGSNYGCGYG, the protein stability index stood at 0.615 ± 0.026.
Then KQWGTHSSWLEV, with 0.701 ± 0.076; and KREEGKTKKKKQ, with 0.666 ± 0.023; and KREKAQEGQGGD, with 0.709 ± 0.025.
Then KRESNSKQTEKV, with 0.7 ± 0.099.
Then KRGNEEYSRGNN, with 0.692 ± 0.012.
For KRGNGIEGRVGG, the protein stability index came to 0.685 ± 0.011.
Then KRKKNISKTEKS, with 0.724 ± 0.016; and KRKKNTRENGED, with 0.778 ± 0.022; and KRKRSERRRGKP, with 0.693 ± 0.015.
KRMPDERAKAGP gave a protein stability index of 0.694 ± 0.0079.
KRNCVVLLPMDR registered a protein stability index of 0.682 ± 0.23.
Then KRNEQQKNDRKK, with 0.653 ± 0.046; and KRRIGKYEERME, with 0.661 ± 0.022; and KRRKREEKKSMT, with 0.742 ± 0.097.
The value for KRRTGKEGRIRR was 0.723 ± 0.021; that for KSDSRISGTVVV was 0.652 ± 0.059; that for KSDTAWSHPYPS was 0.6793 ± 0.00097.
Sequence KSEKQKSNRKEF had a protein stability index of 0.686 ± 0.071.
Then KSGEHSCCRSAD, with 0.602 ± 0.038; and KSKKQYTKKTRK, with 0.709 ± 0.0078; and KSKLSSRTKLTH, with 0.64 ± 0.03.
Then KSKTENKEKATK, with 0.716 ± 0.1; and KSLNTAGVLTGR, with 0.68 ± 0.034.
The value for KSPIPMRAPGNS was 0.633 ± 0.053.
KSQKKKKKNKNF registered a protein stability index of 0.57 ± 0.044.
Then KSSAGAGQCPLS, with 0.712 ± 0.019; and KSYKRICTKKSR, with 0.782 ± 0.096.
Then KTDSEPNKRIHK, with 0.707 ± 0.09; and KTEGQEKRVMSE, with 0.734 ± 0.046; and KTKDGKNNRRTN, with 0.687 ± 0.009.
Then KTKEETNENRNL, with 0.719 ± 0.027.
KTNWKKKERKKA yielded a protein stability index of 0.675 ± 0.027.
Then KTQNVNDQGEET, with 0.644 ± 0.062.
The value for KTTERRQTKSRV was 0.688 ± 0.085; that for KTVPRMESRVRA was 0.718 ± 0.053.
Then KVKREEKRKRED, with 0.712 ± 0.033.
In turn, KVLGRPVGMAYI registered a protein stability index of 0.666 ± 0.034.
The value for KVWGPAVPAVPP was 0.666 ± 0.065.
Then KWNVFRKGRGNI, with 0.793 ± 0.047; and KYTSQRSPRIFR, with 0.573 ± 0.2; and KYVYFAPVLDVI, with 0.659 ± 0.033.
Then LAAGGSAGTRVV, with 0.656 ± 0.026.
With LAAVCFYPFCCF, the protein stability index came to 0.641 ± 0.017.
The value for LACWAGGLGWGG was 0.772 ± 0.044; that for LAFPFSPLAPQI was 0.691 ± 0.077.
Consider LAGNNVSFMRVR, for which the protein stability index is 0.714 ± 0.059.
Sequence LAGPYGRVTVFF registered a protein stability index of 0.67 ± 0.029.
The value for LAHACQRRQTEA was 0.786 ± 0.11.
In the case of LALTIVKFGDLS, the protein stability index was 0.789 ± 0.057.
Then LAPASPTHPHPP, with 0.679 ± 0.0087.
Then LAPLYFSPFPFP, with 0.689 ± 0.041.
Then LAPPHLPPPLHK, with 0.678 ± 0.053.
Sequence LAPPPPVPPTHS displayed a protein stability index of 0.721 ± 0.052.
Then LARGPDETPAGA, with 0.668 ± 0.18; and LASPPIIVFSQM, with 0.556 ± 0.016; and LATGLVIETLWE, with 0.753 ± 0.042.
Sequence LAVGAAGVLFGG had a protein stability index of 0.776 ± 0.03.
Then LAVLRFHLRRHL, with 0.668 ± 0.065; and LAVSSAPLLSSF, with 0.723 ± 0.071; and LCACRMVGFRGG, with 0.538 ± 0.045.
With LCCTLPSRGVIV, the protein stability index was 0.5993 ± 0.0059.
The value for LCGGLSLPFAHV was 0.691 ± 0.097.
On to LCLFPSSFRLPP, for which the protein stability index was 0.6489 ± 0.0051.
LCMGVRGRVGVF had a protein stability index of 0.682 ± 0.088.
Then LCPGYVDSRCRG, with 0.6959 ± 0.0034.
The value for LCRVFAGFLSVG was 0.689 ± 0.036.
LCSIESGPICIL yielded a protein stability index of 0.676 ± 0.0097.
LCSSASFFFSVL returned a protein stability index of 0.67 ± 0.059.
The value for LCSSSLRPFFPE was 0.754 ± 0.024.
Then LCSTSLTPMRPT, with 0.699 ± 0.021; and LCTALLRSLTVG, with 0.744 ± 0.13.
The value for LCWGGRCGSGPG was 0.72 ± 0.051.
In the case of LDLELNRRCRTS, the protein stability index came to 0.675 ± 0.06.
The value for LDLYRYLQDLGC was 0.731 ± 0.018; that for LDSWKQDLYTVC was 0.674 ± 0.033; that for LDTVVNGAIPIL was 0.699 ± 0.051.
The value for LDVQPVHPVDPE was 0.778 ± 0.013; that for LEAINRKGIWQE was 0.639 ± 0.083.
Then LEFFPSSRFFGF, with 0.773 ± 0.026.
Turning to LEITKKKIGLKY, the protein stability index is 0.716 ± 0.13.
For LETVPVPPPPSA, the protein stability index is 0.747 ± 0.057.
Then LETVWRFECGWG, with 0.7759 ± 0.0048; and LEWVRPCDLFPC, with 0.7198 ± 0.005.
Then LFDLVVDSYGHI, with 0.753 ± 0.034; and LFFFPPVPISSV, with 0.601 ± 0.0008; and LFFSIVSPPCGR, with 0.748 ± 0.068.
The value for LFGLLSSPLCVD was 0.63 ± 0.042; that for LFLFPPVLTFPL was 0.625 ± 0.035.
Take LFLRPSGLPTLL: the protein stability index amounted to 0.69 ± 0.083.
The value for LFLSAFFFRFFD was 0.629 ± 0.045.
Then LFPAGSSLCGAI, with 0.753 ± 0.061.
The value for LFPGVHRVEDRA was 0.675 ± 0.034.
Regarding LFPRSVPIAINL, the protein stability index worked out at 0.6259 ± 0.0045.
The value for LFPSFRSLSFVI was 0.672 ± 0.035; that for LFPSPPPPRSSL was 0.7697 ± 0.005; that for LFQVRLVDLSRI was 0.674 ± 0.049.
Then LFRLFFVKACRF, with 0.516 ± 0.0025; and LFRLRLFPHPHF, with 0.645 ± 0.087.
The value for LFRPGDLVYHSV was 0.727 ± 0.026; that for LFSLFLRSPLTS was 0.664 ± 0.035; that for LFSRDASSFRFF was 0.658 ± 0.032.
The sequence LFVFSVCSWPRV displayed a protein stability index of 0.579 ± 0.04.
The value for LFVSCGGCLAMF was 0.687 ± 0.0077; that for LFWARLSLVSLS was 0.495 ± 0.041; that for LFYHLFWLFCSC was 0.634 ± 0.046.
The value for LFYRTLPLPWPA was 0.742 ± 0.02; that for LGAGLIGCALVE was 0.645 ± 0.036; that for LGAIGFVVVGGL was 0.622 ± 0.029.
Then LGALTPSIAGGP, with 0.64 ± 0.01.
